Earlier results as cited in PMC7294537.

What was measured:
lysozyme (Gallus gallus) = lysozyme (Gallus gallus) (UniProt P00698)
[1] = target: CUE domain CUE (Saccharomyces cerevisiae) (UniProt P36075)
Sequence of CUE domain CUE (Saccharomyces cerevisiae) (P36075 8-51): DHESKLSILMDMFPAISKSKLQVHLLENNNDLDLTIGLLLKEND

Sequence of ubiquitin (P0CG63 1-76): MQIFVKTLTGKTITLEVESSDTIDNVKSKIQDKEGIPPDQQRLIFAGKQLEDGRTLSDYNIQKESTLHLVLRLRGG
Sequence of lysozyme (P00698 19-147): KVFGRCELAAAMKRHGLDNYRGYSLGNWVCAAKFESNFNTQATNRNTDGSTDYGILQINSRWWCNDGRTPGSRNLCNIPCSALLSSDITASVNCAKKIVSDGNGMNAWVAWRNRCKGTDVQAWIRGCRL

For lysozyme (from UniProt P00698), the Kd (lysozyme (Gallus gallus)) is given as 2.71 mM.

In the case of ubiquitin (from UniProt P0CG63), the Kd [1] is given as 155 µM.
